The record followed here is article PMC3197789.

For data set [1], the system named is wt STAT3beta, Src-phosphorylated (pY705). In words: EMSA with unlabelled hSIE competition. To be noted: not given in the material (Supporting Information not held). In general terms: In EMSA bound probe runs differently from free probe, usually more slowly.
For data set [2], the system named is 7HC-STAT3beta, Src-phosphorylated (pY705). As to the kind of experiment: EMSA with unlabelled hSIE competition. The note with it: not given in the material (Supporting Information not held).

As usually defined, the Kd is the free concentration of one partner at which half of the binding sites on the other are occupied at equilibrium, for simple one-to-one binding. Low readings indicate a tighter complex, high ones a looser complex. Turning to “hSIE (high-affinity sis-inducible element) probe”, the Kd in data set [1] came to 6.3 nM; in data set [2] it was 6.8 nM.
